In article PMC6706441, “B1 oligomerization regulates PML nuclear body biogenesis and leukemogenesis” (Nature Communications, 2019):
Where “and” joins values, the source holds several entries; their conditions need not be identical. Identical values can stand only once.

Columns and labels:
[1] = biological target: the molecule itself; test: AUC; sedimentation velocity of the gel filtration peaks; Beckman XL-1, 130,000 g, 20 °C, >12 h; 20 mM Tris, pH 8.0, 100 mM NaCl; SEDFIT continuous c(s) model
[2] = biological target: the molecule itself; test: SEC; gel filtration on a calibrated Superdex 200 column; 20 mM Tris, pH 8.0, 100 mM NaCl
[3] = biological target: the molecule itself; test: cross-linking; 0.3 μg purified HA-PML(1–256) with increasing glutaraldehyde, on ice 30 min, 20 mM Hepes pH 7.4; 4–12% SDS-PAGE, anti-HA immunoblot
[4] = biological target: the molecule itself; test: crystal structure; vapor diffusion, protein 38 mg/ml; 30% PEG 6000, 1 M lithium chloride, 100 mM sodium acetate; Zn SAD; oligomers from the asymmetric unit and crystal packing
[5] = biological target: the molecule itself; test: cross-linking; 5 μg purified B1 with 0.05, 0.1, 0.2% (w/v) glutaraldehyde, on ice 30 min, 20 mM Hepes pH 7.4; 8–16% SDS-PAGE, coomassie

B1: PML_(1–256) I122P/V123P (domain or fragment, UniProt P29590-1 1-256, looked up)
chain: MEPAPARSPRPQQDPARPQEPTMPPPETPSEGRQPSPSPSPTERAPASEEEFQFLRCQQCQAEAKCPKLLPCLHTLCSGCLEASGMQCPICQAPWPLGADTPALDNVFFESLQRRLSVYRQPPDAQAVCTRCKESADFWCFECEQLLCAKCFEAHQWFLKHEARPLAELRNQSVREFLDGTRKTNNIFCSNPNHRTPTLTSIYCRGCSKPLCCSCALLDSSHSELKCDISAEIQQRQEELDAMTQALQEQDSAFGA
notes: PML (TRIM19), residues 1-256, double mutant I122P/V123P; source: E. coli BL21 (DE3), purified (His-Trap, thrombin, Q, Phenyl, Superdex 200); not shown: SUMO (human), N-terminal, cleaved; His tag, N-terminal, cleaved
[1]
  binding result: binds

B2: PML RBCC fragment, residues 1-256 (RING, B1, B2 and a 20-residue coiled-coil), wild type (domain or fragment, UniProt P29590-1 1-256, looked up)
chain: MEPAPARSPRPQQDPARPQEPTMPPPETPSEGRQPSPSPSPTERAPASEEEFQFLRCQQCQAEAKCPKLLPCLHTLCSGCLEASGMQCPICQAPWPLGADTPALDNVFFESLQRRLSVYRQIVDAQAVCTRCKESADFWCFECEQLLCAKCFEAHQWFLKHEARPLAELRNQSVREFLDGTRKTNNIFCSNPNHRTPTLTSIYCRGCSKPLCCSCALLDSSHSELKCDISAEIQQRQEELDAMTQALQEQDSAFGA
notes: PML (TRIM19), residues 1-256: RING, B1-box, B2-box and a 20-residue coiled-coil; His tag lay between SUMO and PML; SUMO-His removed after thrombin digestion; Mixture of monomer, dimer, tetramer and N-mer in solution; also called PML_(1–256); RBCC_(1–256); source: E. coli BL21 (DE3), purified (His-Trap, thrombin, Q, Phenyl, Superdex 200); not shown: SUMO (human), N-terminal, cleaved; His tag, …
[1]
  stoichiometry N: 2 and 4

B3: PML_(1–256) F158E (domain or fragment, UniProt P29590-1 1-256, looked up)
chain: MEPAPARSPRPQQDPARPQEPTMPPPETPSEGRQPSPSPSPTERAPASEEEFQFLRCQQCQAEAKCPKLLPCLHTLCSGCLEASGMQCPICQAPWPLGADTPALDNVFFESLQRRLSVYRQIVDAQAVCTRCKESADFWCFECEQLLCAKCFEAHQWELKHEARPLAELRNQSVREFLDGTRKTNNIFCSNPNHRTPTLTSIYCRGCSKPLCCSCALLDSSHSELKCDISAEIQQRQEELDAMTQALQEQDSAFGA
notes: PML (TRIM19), residues 1-256, mutant F158E; source: E. coli BL21 (DE3), purified (His-Trap, thrombin, Q, Phenyl, Superdex 200); not shown: SUMO (human), N-terminal, cleaved; His tag, N-terminal, cleaved
[2]
  binding result: binds

B4: PML_(1–256) W157E (domain or fragment, UniProt P29590-1 1-256, looked up)
chain: MEPAPARSPRPQQDPARPQEPTMPPPETPSEGRQPSPSPSPTERAPASEEEFQFLRCQQCQAEAKCPKLLPCLHTLCSGCLEASGMQCPICQAPWPLGADTPALDNVFFESLQRRLSVYRQIVDAQAVCTRCKESADFWCFECEQLLCAKCFEAHQEFLKHEARPLAELRNQSVREFLDGTRKTNNIFCSNPNHRTPTLTSIYCRGCSKPLCCSCALLDSSHSELKCDISAEIQQRQEELDAMTQALQEQDSAFGA
notes: PML (TRIM19), residues 1-256, mutant W157E; source: E. coli BL21 (DE3), purified (His-Trap, thrombin, Q, Phenyl, Superdex 200); not shown: SUMO (human), N-terminal, cleaved; His tag, N-terminal, cleaved
[2]
  binding result: binds

B5: HA-PML_(1–256) I122P/V123P (domain or fragment, UniProt P29590-1 1-256, looked up)
chain: MEPAPARSPRPQQDPARPQEPTMPPPETPSEGRQPSPSPSPTERAPASEEEFQFLRCQQCQAEAKCPKLLPCLHTLCSGCLEASGMQCPICQAPWPLGADTPALDNVFFESLQRRLSVYRQPPDAQAVCTRCKESADFWCFECEQLLCAKCFEAHQWFLKHEARPLAELRNQSVREFLDGTRKTNNIFCSNPNHRTPTLTSIYCRGCSKPLCCSCALLDSSHSELKCDISAEIQQRQEELDAMTQALQEQDSAFGA
notes: PML (TRIM19), residues 1-256, double mutant I122P/V123P; See note of m9; source: purified
[3]
  binding result: binds

B6: PML B1-box, residues 120-168, wild type (domain or fragment, UniProt P29590 120-168, looked up)
chain: RQIVDAQAVCTRCKESADFWCFECEQLLCAKCFEAHQWFLKHEARPLAE
notes: PML (TRIM19) B1-box, residues 120-168; residues 120-167 are seen in the crystallographic monomer; Four molecules in the asymmetric unit; also called WT B1; source: E. coli BL21 (DE3), purified (His-Trap, thrombin, Q, Phenyl, S100); not shown: His tag, N-terminal, cleaved
[4]
  binding result: binds

B7: PML B1-box I122P/V123P (domain or fragment, UniProt P29590 120-168, looked up)
chain: RQPPDAQAVCTRCKESADFWCFECEQLLCAKCFEAHQWFLKHEARPLAE
notes: PML (TRIM19) B1-box, residues 120-168, double mutant I122P/V123P; PDB 6IMQ holds the wild-type parent; source: E. coli BL21 (DE3), purified (His-Trap, thrombin, Q, Phenyl, S100); not shown: His tag, N-terminal, cleaved
[5]
  binding result: binds
